73 sequences from the supplement of paper PMC10567573 can be followed below.

This data set can be described thus: protein stability index of a GFP-peptide fusion (GPS, HEK-293T) (PSI 1-6); higher = more stable. The note with it: c terminus: a fixed tail appended.

± gives the standard deviation.
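Also: 24-mer peptide tiles fused after GFP, lentivirally expressed, FACS-sorted into six equal bins by GFP/DsRed ratio, decoded by Illumina sequencing, PSI is the read-weighted mean bin number.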

VCKGLPQHEEICLGLFTLILTEPA [INTS3]: the protein stability index runs as follows: (treatment: DMSO) 2.53 ± 0.47; (treatment: MLN4924 1 uM, 8 h) 2.5 ± 0.48.
In the same order, the values of VDFSLSGRLLFAGYNDYTINVWDV [GNB5] are 3.23 ± 0.53 and 2.58 ± 0.61.
On the same counts, the results for VERKRLRNRLAATKCRKRKLERIA [JUNB] are 4.07 ± 0.42 and 4.2 ± 0.34.
In the same order, the values of VETARSHQRSSSESYTQSFQSRKP [PI4K2A] are 5 ± 0.33 and 5.04 ± 0.29.
Sequence VFKQAKDKVSDGVTKSPEKRSSLP [MAP2] had a protein stability index (treatment: DMSO) of 4.92 ± 0.16 and a protein stability index (treatment: MLN4924 1 uM, 8 h) of 4.93 ± 0.099.
On the same counts, the results for VFLIIYYLDPSVLSGVSCFVMFLC [ARL6IP1] are 2.64 ± 0.29 and 2.91 ± 0.91.
In the same order, the values of VFYCDPCRLRCHPPRGPLAKHRLV [TRIM9] are 2.19 ± 0.34 and 2.36 ± 0.29.
Turning to VGALLVYDIAKHLTYENVERWLKE [RAB11A], the protein stability index by setting is: (treatment: DMSO) 2.54 ± 0.32; (treatment: MLN4924 1 uM, 8 h) 2.32 ± 0.54.
Regarding VGYTTLVGNNHESWGWDLGRNRLY [SPSB1], the protein stability index by setting is: (treatment: DMSO) 2.26 ± 0.35; (treatment: MLN4924 1 uM, 8 h) 2.12 ± 0.25.
On the same counts, the results for VIDGATALWCAAGAGHFEVVKLLV [FEM1B] are 2.49 ± 0.89 and 2.36 ± 0.35.
In the same order, the values of VIHRALDREQVSSYNITVTATDGG [PCDHGA10] are 3.27 ± 0.23 and 3.14 ± 0.28.
On the same counts, the results for VIQPALPGQPLPGASVRGLHPVQK [TRAF3IP2] are 3.76 ± 0.34 and 3.66 ± 0.39.
For VISPVIQLQPTFTPMRVALAGTFH [NSDHL], the protein stability index turned out to be 2.42 ± 0.54 (treatment: DMSO) and 2.1 ± 0.11 (treatment: MLN4924 1 uM, 8 h).
In the same order, the values of VKARKQEIIKVTEQLIEAINNGDF [CAMK2D] are 2.59 ± 0.28 and 2.93 ± 0.3.
In the same order, the values of VKVHGLLKTFVKQTDHIKGIRQIT [GFOD1] are 2.53 ± 0.38 and 2.34 ± 0.41.
On the same counts, the results for VKVVLIPVGQEIVIPFKVDTILKY [IQUB] are 3.98 ± 0.88 and 2.5 ± 0.79.
As to VLELLGPSLEDLFDLCDRTFSLKT [CSNK1G3], the protein stability index was found to be 2.38 ± 0.57 (treatment: DMSO) and 2.36 ± 0.48 (treatment: MLN4924 1 uM, 8 h).
For the setting “treatment: MLN4924 1 uM, 8 h”, VLGINRAYGKNSLSKNLIKMLSKA [AUH] had a protein stability index of 2.244 ± 0.021.
VLIVDWDVHHGQGTQFTFDQDPSV [HDAC6]: the protein stability index (treatment: DMSO) was determined as 2.32 ± 0.42 and the protein stability index (treatment: MLN4924 1 uM, 8 h) worked out at 2.13 ± 0.049.
On the same counts, the results for VLQIDNARLAADDFRVKYETELAM [KRT18] are 3.04 ± 0.12 and 3.3 ± 0.33.
In the same order, the values of VLRSRIRFIHLVTGCVLGSSGKVL [POMT2] are 2.62 ± 0.59 and 2.63 ± 0.76.
In the same order, the values of VLSDINLKKGESECQYYIDKLEYL [NET1] are 2.72 ± 0.18 and 2.94 ± 0.33.
On to VLSLACAGGHLAVVELLLAHGADP [ANKRD17], for which the protein stability index runs as follows: (treatment: DMSO) 2.3 ± 0.66; (treatment: MLN4924 1 uM, 8 h) 2.44 ± 0.95.
On the same counts, the results for VLVHCEAGISRSPTICMAYLMKTK [DUSP5] are 2.77 ± 0.61 and 2.39 ± 0.41.
On the same counts, the results for VNNDKSISVQELMGCLGVAKEDGK [SMOC2] are 4.47 ± 0.13 and 4.62 ± 0.19.
In the same order, the values of VNVDNLLAAAVVQEHSNSVGGQDT [C18orf25] are 5.05 ± 0.21 and 4.92 ± 0.43.
For the sequence VPETIHDELQQSFQKSHNSLQRWE [PRIM1], the protein stability index is 3.88 ± 0.16 (treatment: DMSO) and 3.75 ± 0.24 (treatment: MLN4924 1 uM, 8 h).
Take VPFVRVKREREVDEDSEPEREVRA [USP39]: the protein stability index is, setting by setting: (treatment: DMSO) 5.15 ± 0.26; (treatment: MLN4924 1 uM, 8 h) 5.17 ± 0.14.
On to VPLGFHYETKYVVLSYLGLLSQEK [BCL2L13], for which the protein stability index amounted to 3.25 ± 0.93 (treatment: DMSO) and 2.4 ± 0.91 (treatment: MLN4924 1 uM, 8 h).
On the same counts, the results for VPSSGYGAVTASKHSNSPPLVTPP [SMTNL2] are 4.29 ± 0.14 and 4.16 ± 0.15.
On the same counts, the results for VPTTPGPASGSTFRGRRDVSGSWE [RETREG3] are 4.37 ± 0.2 and 4.44 ± 0.15.
In the same order, the values of VQTSVIGSNGYILNKPALQAQPLR [EHMT1] are 3.06 ± 0.34 and 3.17 ± 0.13.
Consider VRLLLEFKAEVDPLSDKGTTPLQL [ASB7], for which the protein stability index by setting is: (treatment: DMSO) 2.16 ± 0.48; (treatment: MLN4924 1 uM, 8 h) 2.31 ± 0.4.
On the same counts, the results for VRSTETVERDNMEEDNVEESEEEG [HDAC6] are 5.57 ± 0.45 and 5.72 ± 0.24.
In the same order, the values of VSEAGGSGRLSASWEPLSGPSTPS [FCHO1] are 4.54 ± 0.17 and 4.74 ± 0.2.
With VSKVVKGGSSGKGTTLRGRSDADL [OAS1], the protein stability index runs as follows: (treatment: DMSO) 4.36 ± 0.11; (treatment: MLN4924 1 uM, 8 h) 4.48 ± 0.15.
In the same order, the values of VSRMRTQRAFSIQTPEQYYFCYKA [PTPN9] are 2.56 ± 0.18 and 2.43 ± 0.27.
In the same order, the values of VSVNLEAFSQAISAIQALRSSVSR [MED27] are 3.17 ± 0.15 and 3.24 ± 0.28.
In the same order, the values of VTLGGVLRQQLVVSKELRMYDEKA [KLHL13] are 2.95 ± 0.25 and 3.02 ± 0.41.
On to VTLMVAKWTGDFFNKGIYDIHVGL [CLCN6], for which the protein stability index is 2.46 ± 0.4 (treatment: DMSO) and 3.58 ± 0.26 (treatment: MLN4924 1 uM, 8 h).
Take VTLRQVLAAKERHCGELKRRLGLS [TPD52L2]: the protein stability index stood at 2.35 ± 0.28 (treatment: DMSO) and 2.67 ± 0.2 (treatment: MLN4924 1 uM, 8 h).
In the case of VTQNSTAEPSRFSSSDSDFDDEEP [FCHO1], the protein stability index reads like this: (treatment: DMSO) 5.52 ± 0.25; (treatment: MLN4924 1 uM, 8 h) 5.55 ± 0.14.
On the same counts, the results for VTTHQPTNLVLPSNGSMHNYCPQQ [EDNRA] are 3.75 ± 0.2 and 3.77 ± 0.056.
Consider VVDKETDNMYRLAHFSPFLYYQSQ [PDZK1], for which, under “treatment: DMSO”, the protein stability index is 2.62 ± 0.35.
VVHVSFPEVTSALLESLNQQRLQG [ZBTB22]: the protein stability index by setting is: (treatment: DMSO) 2.27 ± 0.28; (treatment: MLN4924 1 uM, 8 h) 2.41 ± 0.21.
In the same order, the values of VVSSEGRQSRRQSVSRFFADSGAD [FBF1] are 4.25 ± 0.11 and 4.44 ± 0.31.
As for VVVFKALVTTHHLMVHGNERFIQY [SNAP91], the protein stability index is, setting by setting: (treatment: DMSO) 3.2 ± 0.42; (treatment: MLN4924 1 uM, 8 h) 3.02 ± 0.5.
In the same order, the values of VYHPSPEESRDPTLYANNVQRVMA [LPCAT4] are 3.6 ± 0.13 and 3.81 ± 0.12.
On the same counts, the results for WEEAAPGRAVEHAMFLGDAAAHWY [MYORG] are 3.05 ± 0.47 and 3.15 ± 0.22.
In the same order, the values of WEQTHLTYRIENYTPDLPRADVDH [MMP1] are 3.95 ± 0.31 and 3.53 ± 0.3.
For the sequence WFSLASVIFLLLFAPFIVYYFIMA [DHCR7], the protein stability index is, setting by setting: (treatment: DMSO) 2.27 ± 0.53; (treatment: MLN4924 1 uM, 8 h) 2.34 ± 0.44.
With WHLKQSPASPERDYSPYYKTIEEL [KRT13], the protein stability index is, setting by setting: (treatment: DMSO) 3.26 ± 0.094; (treatment: MLN4924 1 uM, 8 h) 3.29 ± 0.26.
On the same counts, the results for WHPAENIIAIAATNNLYIFQDKVN [PPP2R2C] are 2.6 ± 0.48 and 2.44 ± 0.31.
On the same counts, the results for WIEQLNECKQLSESQVKSLCEKAK [PPP2CA] are 3.85 ± 0.18 and 3.87 ± 0.1.
On the same counts, the results for WIVDKQHVYIGSAGLDWQSLGQMK [PLD5] are 2.44 ± 0.42 and 2.16 ± 0.24.
On to WKIALLFVAFALCMFCLYSFMPLV [SLC35F2], for which the protein stability index is 2.19 ± 0.51 (treatment: DMSO) and 2.69 ± 0.46 (treatment: MLN4924 1 uM, 8 h).
In the same order, the values of WKLQKKEHPPEVSRETQRTPMNHQ [FBXO34] are 4.52 ± 0.11 and 4.49 ± 0.16.
In the same order, the values of WMENNGHVAGEQMLEDGPHNANRG [CCDC70] are 5.23 ± 0.39 and 5.25 ± 0.14.
On the same counts, the results for WNDLRPKLSCLFAGPHSTLTPPCS [SNX8] are 2.27 ± 0.29 and 2.27 ± 0.39.
For WSRNSKPVHTTILNPHIHLMGDES [CAMK2A], the protein stability index (treatment: DMSO) was determined as 3.4 ± 0.28 and the protein stability index (treatment: MLN4924 1 uM, 8 h) is 3.53 ± 0.08.
On the same counts, the results for WYDMFRDAAAILLDEQNKRPCRKF [ZMAT5] are 2.35 ± 0.22 and 2.33 ± 0.44.
YAFANVFHGWKYMFGLVIPLGVLQ [SLC2A12]: the protein stability index (treatment: DMSO) was determined as 3.19 ± 0.62 and the protein stability index (treatment: MLN4924 1 uM, 8 h) came to 3.11 ± 0.52.
On the same counts, the results for YAPSCAKCKKKITGEIMHALKMTW [PDLIM7] are 2.53 ± 0.33 and 2.44 ± 1.
In the same order, the values of YEIPHFRLKKVENIKIWLSLRSYL [PHTF1] are 2.8 ± 1 and 2.92 ± 0.9.
Take YEPLLSRVQAALVWERPARSALWC [RETREG3]: the protein stability index was 2.39 ± 0.53 (treatment: DMSO) and 2.12 ± 0.22 (treatment: MLN4924 1 uM, 8 h).
In the same order, the values of YESHSTSELEDLTEPEQRELKTKL [TPD52L3] are 5.63 ± 0.13 and 5.52 ± 0.11.
In the same order, the values of YFYHRETENEEQTQLTQNAVSCPY [KCNA4] are 3.88 ± 0.34 and 3.96 ± 0.17.
Regarding YGLPIMVTLMVAKWTGDFFNKGIY [CLCN6], the protein stability index (treatment: DMSO) worked out at 2.98 ± 0.25 and the protein stability index (treatment: MLN4924 1 uM, 8 h) worked out at 3.4 ± 0.42.
In turn, YIATQGSLPETFGDFWRMIWEQRS [PTPRD] gave a protein stability index (treatment: DMSO) of 2.21 ± 0.21 and a protein stability index (treatment: MLN4924 1 uM, 8 h) of 2.5 ± 0.55.
In the same order, the values of YITKVSEEVTRLGAQVKELEEKCQ [TRIM15] are 4.07 ± 0.24 and 4.22 ± 0.37.
In the same order, the values of YKAKSRSPGSPVGEGTGSPPKWQI [ADD1] are 3.5 ± 0.28 and 3.76 ± 0.33.
On the same counts, the results for YKDRQKFSEQVFKVASSDLVNMGI [FLOT1] are 2.52 ± 0.24 and 2.77 ± 0.29.
Consider YKGHTDVVRYLLEQRADPNAKAHC [FEM1B], for which the protein stability index was 3.27 ± 0.44 (treatment: DMSO) and 3.6 ± 0.17 (treatment: MLN4924 1 uM, 8 h).
